Reference: US9096871B2, “Variant CBH I polypeptides with reduced product inhibition” (BP Corporation North America Inc., priority 2010, dated 2015)
Changes are numbered by the printed parent chain. Names and notes keep the numbering of the source.

Test: Bagasse assay in the absence and presence of β-glucosidase (BG)
Assay type: biochemical
Details: variants of T. reesei CBH I; [(Activity without BG)/(Activity with BG)]*100; conversion of glucan after 72 hours
Description: Bagasse Assay: This assay measures the activity of CBH I on bagasse, a lignocellulosic substrate. Reactions were run in 10 ml vials with 5% dilute acid pretreated bagasse (250 mg solids per 5 ml reaction). Each reaction contained 4 mg CBH I enzyme/g solids, 200 mM MES pH 6, kanamycin, and chloramphenicol. Reactions were incubated at 35° C. in hybridization incubators (Robbins Scientific), rotating at 20 RPM. Time points were taken by transferring a sample of homogenous slurry (150 μl) into a 96-well deep well plate and quenching the reaction with stop buffer (450 μl of 500 mM sodium carbonate, pH 10). Time point measurements were taken every 24 hours for 72 hours.
Cellobiose Tolerance Assays (or Cellobiose Inhibition Assays): Tolerance to cellobiose (or inhibition caused by cellobiose) was tested in two ways in the CBH I assays. A direct-dose tolerance method can be applied to all of the CBH I assays (i.e., 4-MUL, PASC, and/or bagasse assays), and entails the exogenous addition of a known amount of cellobiose into assay mixtures. A different indirect method entails the addition of an excess amount of β-glucosidase (BG) to PASC and bagasse assays (typically, 1 mg β-glucosidase/g solids loaded). BG will enzymatically hydrolyze the cellobiose generated during these assays; therefore, CBH I activity in the presence of BG can be taken as a measure of activity in the absence of cellobiose. Furthermore, when activity in the presence and absence of BG are similar, this indicates tolerance to cellobiose. […]
FIGS. 4 and 5 show bar graph data for the bagasse assay of wild type T. reesei CBH I vs. the variants. In FIG. 4, bars represent relative activity, normalized to wild type activity in the absence of cellobiose (WT+BG=1). In FIG. 5, bars represent tolerance to cellobiose, as represented by the ratio of activity in the presence of accumulating cellobiose (−BG) to that of activity in the absence of cellobiose (+BG); ratios close to 1 indicate greater tolerance to cellobiose.

B1: R268A/R411A: T. reesei CBH I (SEQ ID NO:2) with R268A and R411A substitutions (protein, listed as Trichoderma reesei)
chain: MYRKLAVISAFLATARAQSACTLQSETHPPLTWQKCSSGGTCTQQTGSVVIDANWRWTHATNSSTNCYDGNTWSSTLCPDNETCAKNCCLDGAAYASTYGVTTSGNSLSIGFVTQSAQKNVGARLYLMASDTTYQEFTLLGNEFSFDVDVSQLPCGLNGALYFVSMDADGGVSKYPTNTAGAKYGTGYCDSQCPRDLKFINGQANVEGWEPSSNNANTGIGGHGSCCSEMDIWEANSISEALTPHPCTTVGQEICEGDGCGGTYSDNAYGGTCDPDGCDWNPYRLGNTSFYGPGSSFTLDTTKKLTVVTQFETSGAINRYYVQNGVTFQQPNAELGSYSGNELNDDYCTAEEAEFGGSSFSDKGGLTQFKKATSGGMVLVMSLWDDYYANMLWLDSTYPTNETSSTPGAVAGSCSTSSGVPAQVESQSPNAKVTFSNIKFGPIGSTGNPSGGNPPGGNPPGTTTTRRPATTTGSSPGPTQSHYGQCGGIGYSGPTVCASGTTCQVLNPYYSQCL
Tolerance to cellobiose accumulation % Activity in Bagasse Assay (−/+BG): 95%

B2: R268A/R411K: T. reesei CBH I (SEQ ID NO:2) with R268A and R411K substitutions (protein, listed as Trichoderma reesei)
chain: B1 chain with A411K
Tolerance to cellobiose accumulation % Activity in Bagasse Assay (−/+BG): 94%

B3: R411K: T. reesei CBH I (SEQ ID NO:2) with R411K substitution (protein, listed as Trichoderma reesei)
chain: B1 chain with A268R, A411K
Tolerance to cellobiose accumulation % Activity in Bagasse Assay (−/+BG): 89%

B4: R268A: T. reesei CBH I (SEQ ID NO:2) with R268A substitution (protein, listed as Trichoderma reesei)
chain: B1 chain with A411R
Tolerance to cellobiose accumulation % Activity in Bagasse Assay (−/+BG): 86%

B5: R268K/R411K: T. reesei CBH I (SEQ ID NO:2) with R268K and R411K substitutions (protein, listed as Trichoderma reesei)
chain: B1 chain with A268K, A411K
Tolerance to cellobiose accumulation % Activity in Bagasse Assay (−/+BG): 94%

B6: R411A: T. reesei CBH I (SEQ ID NO:2) with R411A substitution (protein, listed as Trichoderma reesei)
chain: B1 chain with A268R
Tolerance to cellobiose accumulation % Activity in Bagasse Assay (−/+BG): 94%

B7: R268K/R411A: T. reesei CBH I (SEQ ID NO:2) with R268K and R411A substitutions (protein, listed as Trichoderma reesei)
chain: B1 chain with A268K
Tolerance to cellobiose accumulation % Activity in Bagasse Assay (−/+BG): 102%

B8: R268K: T. reesei CBH I (SEQ ID NO:2) with R268K substitution (protein, listed as Trichoderma reesei)
chain: B1 chain with A268K, A411R
Tolerance to cellobiose accumulation % Activity in Bagasse Assay (−/+BG): 92%
